From article PMC4500170 come the findings set out here.

This series deals with Cc1cc(O)cc2c(C(=O)O)c(O)ccc12. The experiment in a line: purified protein. The following applies: 2.5 mM SAM, 100 mM phosphate pH 6.5, 25 °C, 10 μM enzyme.
Regarding “NcsB1 (Streptomyces carzinostaticus; R11W)”, the Km (as a rule, the substrate concentration at which the rate is half of its maximum) is 400 ± 68 µM and the kcat (commonly the maximal rate divided by the concentration of active sites) was 0.01 ± 0.0005 s⁻¹.

“NcsB1 (Streptomyces carzinostaticus; Y293I)”: the Km is 649 ± 9 µM and the kcat was determined as 0.0127 ± 0.000667 s⁻¹.

As to “NcsB1 (Streptomyces carzinostaticus; R11K)”, the Km came out at 319 ± 40 µM and the turnover number (kcat) amounted to 0.0197 ± 0.000833 s⁻¹.

With “NcsB1 (Streptomyces carzinostaticus; R11A)”, the Km turned out to be 419 ± 61 µM and the kcat was found to be 0.0207 ± 0.001 s⁻¹.
